Experimental data: patent WO2009150539A2 (dated 2009)
Residue numbers refer to the chain shown, from its start. Several values for one entry are separate records, joined by “and”; a condition that tells them apart may be missing. Equal values may be shown once.

T1: AahII toxin of Androctonus australis hector (Androctonus australis hector, UniProt P01484 20-83)
T1 sequence: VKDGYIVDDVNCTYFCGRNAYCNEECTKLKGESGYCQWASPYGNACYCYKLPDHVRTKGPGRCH

B1: NbAahII38 (VHH)
VHH: DVQLVESGGGLVQPGGSLRLSCAASGFTFSNYVMSWVRQAPGKGLEWVSGINHGGGIQDYADSVKGRFTISRDNAKNTLYLQLNSLKIEDTAMYYCVRASHYRDYGPTIYSWGQGTQVTVSS
notes: also called cluster H
B2: NbAahII12 (VHH)
VHH: QVQLVESGGGLVQPGGSLRLSCAASGFSFNIYAMSWVRQAPGKQFEWVSGIHPNGRSTYYTDSVKGRFTISRDNAKNTLYLQLDSLKTEDTAMYYCAKGVLTKYVGGARGQGTQVTVSS
notes: Purified from E. coli periplasm with His6; also called cluster I
B3: NbAahII19 (VHH)
VHH: B2 VHH with V5Q, N54D, G107S
notes: as for B2
B4: NbAahII17 (VHH)
VHH: DVQLVESGGGSVQAGGSLRLSCAASGVTLNNYCVGWFRQAPGKEREGVAAFKSGGSFTYYADSVKGRFTISKDNAKNTMYLQMNSLNSDDTAMYYCAVTRNSCLGLAKFRPSSYNYWGQGTQVTVSS
notes: also called cluster D
B5: NbAahII05 (VHH)
VHH: QVQLQESGGGSVQAGGSLRLSCAASGYTCTKFNMGWYRQAPGKQREFVASIRRDSTIYYGDSVKGRFTISQDNAKNMVYLQMTSLKPEDSAMYYCSTRCLTSSVPYWGQGTQVTVSS
notes: also called cluster G
B6: NbAahII10 (VHH)
VHH: QVQLVESGGGSVQAGGSLKLSCAASGYFYSSNYCLGWFRQAPGKEREGVAQINIAPGRIYYADSVKGRFTISRDNAKNTVYLQMDSLKPEDTAIYYCASTAGNMYYGLRGPADFDYWGQGTQVTVSS
notes: also called NbAahIIlO; NbAahII lO
B7: NbAahII20 (VHH)
VHH: QVQLQESGGGLVQPGGSLRLSCTASGFDFSRYVMSWVRQAPGKDFEWISGIMPLSSAGTTYADAVKGRFTISRDNAKNTLYLQLNNLKTEDTAIYYCAKGVYTTYIGGARGQGTQVTVSS
notes: Purified from E. coli periplasm with His6; also called NbAahIKO (I); cluster I
B8: NbAahII11 (VHH)
VHH: B4 VHH with D1Q, V5Q, V27L, V34I, F51L, K72R, N84S, D89E
notes: also called NbAaWI 1 1; NbAahIIl l
B9: NbAahII32 (VHH)
VHH: B4 VHH with D1Q, V5Q, V27L, V34I, F51L, K72R, N84S, D89E
B10: NbAahII6 (VHH)
VHH: B4 VHH with D1Q, V5Q, V27A, V34L, D89E, N101H
notes: also called NbAahllό
B11: NbAahII3 (VHH)
VHH: QVQLVESGGGSVQAGGSLRLACAASGVTLSDYCMGWFRQAPGKEREGVAAIKDRGSISYYADSVKGRFTISKDNAKNTMYLQMNRLNSEDTAMYYCAVTRNSCLGLAKFRPPSYNYWGQGTQVTVSS
notes: also called NbAahID; NbAahIB
B12: NbAahII48 (VHH)
VHH: B5 VHH with Q5V, Q44E, S50T, G60A, L100V
B13: NbAahII16 (VHH)
VHH: HVQLVESGGGSVQAGGSLRLSCAASGYTFSNYRMGWFRRAPGKECELVSTILTDGSTNYADSVKGRFTISRDNAKNTVYLLMNNLKAEDTAVYYCAAGNSRKGYLRRCGGTDFGYWGQGTQVTVSS
notes: also called NbAahlllό
B14: NbAahII45 (VHH)
VHH: QVQLQESGGGSVQAGGSLKLSCAASGYFYSSNYYMAWFRQAPGKEREGVAHINRSGRITLYADSVKGRFTMSRDNAKNTVYLQMNSLKPEDTAIYYCAAGVRTHMPPLASYGFDYWGQGTQVTVSS

molecular target: T1, AahII toxin of Androctonus australis …; assay: cell-based or functional assay

Binder | Survivors/Injected mice; i.c.v.; AahII:Nb 1:2; 2 LD50/mouse; 24 ng Nb/mouse | Survivors/Injected mice; i.c.v.; AahII:Nb 1:2; 3 LD50/mouse; 36 ng Nb/mouse | NC = (LD50 with Nb - LD50 without Nb)/Nb; i.c.v.; AahII:Nb 1:4 | Survivors/Injected mice; i.c.v.; AahII:Nb 1:4; 2 LD50/mouse; 48 ng Nb/mouse | Survivors/Injected mice; i.c.v.; AahII:Nb 1:4; 3 LD50/mouse; 72 ng Nb/mouse | Survivors/Injected mice; i.c.v.; AahII:Nb 1:2; 4 LD50/mouse; 48 ng Nb/mouse | neutralizing capacity, i.c.v., toxin/Nb ratio 1/4 [LD50/mg]
B1 | 1 survivors of 4 mice | 0 survivors of 4 mice | – | – | – | – | –
B2 | – | – | 27000 LD50/mg and 400 LD50/nmol | 3 survivors of 4 mice | 2 survivors of 4 mice | – | –
B3 | – | – | – | 4 survivors of 4 mice | 4 survivors of 4 mice | – | –
B4 | 0 survivors of 4 mice | – | – | – | – | – | –
B5 | 4 survivors of 4 mice | 4 survivors of 4 mice | – | – | 4 survivors of 4 mice | 1 survivors of 4 mice | –
B6 | – | – | 37000 LD50/mg and 555 LD50/nmol | 4 survivors of 4 mice | 4 survivors of 4 mice | – | ~37500
B7 | 3 survivors of 4 mice | – | 27000 LD50/mg and 400 LD50/nmol | – | 2 survivors of 4 mice | 2 survivors of 4 mice | –

molecular target: T1, AahII toxin of Androctonus australis …; assay: phage ELISA on coated AahII, Nb displayed on phage

Binder | binding result
B8 | binds
B9 | binds
B10 | binds
B11 | binds
B12 | binds
B13 | binds
B14 | binds

molecular target: T1, AahII toxin of Androctonus australis …; assay: SPR (BIAcore), AahII immobilised on CM5 chip, Nb in mobile phase

Binder | Kd [nM] | koff [s⁻¹] | kon [M⁻¹ s⁻¹]
B1 | 76 | 0.000781 | 10200
B2 | 0.28 | 0.0016 | 5.63e+06
B3 | 2.39 | 0.013 | 5.46e+06
B4 | 0.61 | 0.00376 | 6.12e+06
B5 | 0.67 | 0.00186 | 2.77e+06
B6 | 0.49 | 0.000569 | 1.14e+06
B7 | 0.26 | 0.00213 | 8.18e+06
